# Measured values taken from article PMC9409550 (PLoS ONE, 2022).
# B1: CDY14HL-Fc1 (Fc fusion)
# chain: QSTIEEQAKTFLDMFNHKAEDLFYQSSLAAWNYNTNITEENVQNMNNAGDKWSAFLKEQSTFAQMYPLQEIQNPTVKLQLQALQQNGSSVLSEDKSKRLNTILNTMSTIYSTGKVCNPDNPQECLLLEPGLNEIMANSLDYNERLWAWESWRSEVGKQLRPLYEEYVVLKNEMARANHYEDYGDYWRGDYEVNGVDGYDYSRGQLIEDVEHTFEEIKPLYEHLHAYVRAKLMNAYPSYISPIGCLPAHLLGDMWGRFWTNLYSLTVPFGQKPNIDVTDAMVDQAWDAQRIFKEAEKFFVSVGLPNMTQGFWEYSMLTDPGNVQKAVCLPTAWDLGKGDFRILMCTKVTMDDFLTAHHEMGHIQYDMAYAAQPFLLRNGANEGFHEAVGEIMSLSAATPKHLKSIGLLSPDFQEDNETEINFLLKQALTIVGTLPFTYMLEKWRWMVFKGEIPKDQWMKKWWEMKREIVGVVEPVPHDETYCDPASLFHVSNDYSFIRYYTRTLYQFQFQEALCQAAKHEGPLHKCDISNSTEAGQKLFNMLRLGKSEPWTLALENVVGAKNMNVRPLLNYFEPLFTWLKDQNKNSFVGWSTDWSPYAD
# What was measured:
# [1] = molecular target: SARS-CoV-2 Omicron BA.1 RBD, yeast-displayed (SARS-CoV-2, UniProt P0DTC2); assay: flow cytometry on cells; conditions: one partner purified
# [2] = molecular target: SARS-CoV-2 Omicron BA.2 RBD, yeast-displayed (SARS-CoV-2, UniProt P0DTC2); assay: flow cytometry on cells; conditions: one partner purified
binder,measurement,setting,value
B1,Kd,[1],31 pM
same,Kd,[2],24 pM
